Test system: MS2 coat protein
Test: apparent KD of MS2 coat protein; designed switch direction (-1 OFF switch, 1 ON switch): 1; higher = weaker reporter binding
In short: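 Designed RNA switches with common flanks were transcribed on Illumina chips by stalled E. coli RNA polymerase and titrated with SNAP-549-labelled MS2 coat protein, from 0.7 or 1.5 nM doubling to 3 µM, in Tris-HCl pH 7.5 buffer with KCl, MgCl2, BSA, DTT, tRNA and Tween-20. Steps lasted 0.8–1.5 h (lowest) to 10–20 min (highest). Titrations ran without input, with 200 uM small-molecule ligand, or with an oligonucleotide input. Normalised cluster fluorescence was curve-fitted, and apparent KD is the per-design median over clusters.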

[1] = input ligand: microRNA oligo, concentration not stated
[2] = Eterna round: R95, input ligand: microRNA oligo, concentration not stated
[3] = Eterna round: R95, input ligand: FMN 200 uM
[4] = Eterna round: R95, input ligand: none

Sequence	apparent KD of MS2 coat protein (input ligand: FMN 200 uM) [µM]	apparent KD of MS2 coat protein [1] [µM]	apparent KD of MS2 coat protein (input ligand: none) [µM]	apparent KD of MS2 coat protein [2] [µM]	apparent KD of MS2 coat protein [3] [µM]	apparent KD of MS2 coat protein [4] [µM]
GGUCGGUCCAAACAUGAGGAUCACCCAUGUCCGGAAACGGCAUAGGAUAUCUGUCCGAAAAGGUCAGAGAAGGGUGAACCGACC [Fiskers NG3ss - 71] (Eterna round: R96, puzzle: Same State NG 3)	0.795	0.741	0.149	–	–	–
GGUCUAGUUACAGGAUAUGCUAUCCUUUGGGUAGCAGAAGGGUGGUAACAUGAGGAUCACCCAUGUGGGCCAGGGCGUGAGCCC [JL SSNG1 1.00] (Eterna round: R96, puzzle: Same State NG 1)	0.77	0.981	1.26	–	–	–
GGUGCCAAAUAAGCCUACAUGAGGAUCACCCAUGUAUGUAGGCAGGAUAUCGUAUGCAAAGCAUACGAGAAGGGCUGAGGCACC [Mat - Same State NG 3 - JL Mod - D54] (Eterna round: R96, puzzle: Same State NG 3)	0.0257	0.0516	0.0805	–	–	–
GGUGCGAAAUAAGCCUACAUGAGGAUCACCCAUGUAUGUAGGCAGGAUAUCGUAUGCAAAGCAUACGAGAAGGGCUGACGCACC [Mat - Same State NG 3 - JL Mod - D51] (Eterna round: R96, puzzle: Same State NG 3)	0.0325	0.0559	0.0754	–	–	–
GGUGGGUUACUACCCACACAUGAGGAUCACCCAUGUAUUGGGAAGGAUAUGGUGCCUGUGUGGUACCAGAAGGUCCUGAAGGUG [SS-NG3-LRO18] (Eterna round: R96, puzzle: Same State NG 3)	1.36	1.03	2.13	–	–	–
GGUGUACAUGAGGAUCACCCAUGUCGUACGACAUGAGGAUAUGUACAGACUUCGGUCUGUACAGAAGGCAUGUGUC [SS1 - 1011 Omei Mod 5] (puzzle: Same State 1)	–	–	–	0.21	–	–
GGUUUAGCCAGGUGCAGUUGCACCUGAAAACAUGAGGAUCACCCAUGUUUGGGACAAGCUUUGCUCCUCGUCUUUCC [Isusreraar] (puzzle: Sensor for hsa-mir-208a)	–	–	–	0.0387	0.267	0.364
GGUUUAGUCAAGUGCCGUUGCACUUGAAAACAUGAGGAUCACCCAUGUUCGGGACAAGCUUUGCUCCUCGUCUUUCC [Geisedor] (puzzle: Sensor for hsa-mir-208a)	–	–	–	0.0502	0.255	0.389
GUAAAACAUGAGGAUCACCCAUGUAAUAUAAUGGGAGGAUAUCUGAUUUAAUUAAAUUUAAGAGAAGGCCUAAAUG [Mat - Same State 1 - Mod of Eli - D56] (puzzle: Same State 1)	–	–	–	0.107	0.0321	0.123
GUAAAACAUGAGGAUCACCCAUGUCAACAAAGUCGAGGAUAUGGGCAUAUAUUAUAUGAACCAGAAGGCGAAUAUG [Mat - Same State 1 - Mod of UCT - D27] (puzzle: Same State 1)	–	–	–	0.0431	0.0146	0.0339
GUAAAACAUGAGGAUCACCCAUGUCAUCUAAGUCGAGGAUAUGGGAAUUAAUUAAUUAAUCCAGAAGGCGAAAAUG [Mat - Same State 1 - D94] (puzzle: Same State 1)	–	–	–	0.0581	0.0411	0.11
GUAAGUUUGAUGCUCGUCUCUCCGUACAGACAUGAGGAUCACCCAUGUAGUCGGGAAGUAGCCCGGCCAGUAUGGCC [Zaorve] (puzzle: Sensor for hsa-mir-208a)	–	–	–	0.0222	0.0181	0.0177
GUAAUAAAGGAAGGAUAUGGGUAAACGGGAAUCCCAGAAGGUCCACAUGAGGAUCACCCAUGUGGUCCCGAAACCAAGGGACCG [Cetibiza] (Eterna round: R96, puzzle: Same State NG 1)	0.0531	0.0193	0.0487	–	–	–
